In patent US20220195043A1 (BEIJING MABWORKS BIOTECH, published 2022):
Where two headings read alike, the source gives them in different places.

How the values were obtained:
[1] = molecular target: T1, human CD3ε-his (Cat #:10977-H08s, SinoBiological, China) (human, UniProt P07766 23-126); assay: SPR (BIAcore 8K); human CD3ε-his coupled to CM5 chip, antibody injected
T1 construct: Bought protein; also called human CD3ε protein; recombinant human CD3ε; not shown: his tag

[2] = molecular target: T1, human CD3ε-his (Cat #:10977-H08s, …); assay: ELISA: plate coated with human CD3ε-his, antibody titrated, HRP goat anti-human IgG, OD 450
[3] = molecular target: T2, monkey CD3ε-his (Cat #: 90047-C08H, SinoBiological, China) (monkey, UniProt Q95LI5 22-117); assay: ELISA: plate coated with monkey CD3ε-his, antibody titrated, HRP goat anti-human IgG, OD 450
T2 construct: Bought protein; also called monkey CD3ε protein; recombinant monkey CD3ε
T2 sequence: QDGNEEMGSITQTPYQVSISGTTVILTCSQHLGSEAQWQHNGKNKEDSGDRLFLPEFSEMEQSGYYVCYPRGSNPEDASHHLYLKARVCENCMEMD

[4] = molecular target: T2, monkey CD3ε-his (Cat #: 90047-C08H, …); assay: as above; remark: listed apart in the source
[5] = molecular target: T1, human CD3ε-his (Cat #:10977-H08s, …); assay: ELISA: plate coated with human CD3ε-his, antibody titrated, HRP goat anti-human IgG, OD 450; remark: listed apart in the source
[6] = molecular target: T3, human TCR/CD3 complex on cell surfaces (primary human CD4+ T cells; Jurkat cells; human PBMCs) (human, UniProt P07766 23-207); assay: FACS on primary human CD4+ T cells, PE goat anti-human IgG, MFI
T3 construct: whole, on cells; Native complex on cells; the γ, δ, ζ and TCR chains of the complex are present on the cells too; also called human CD3 complexes on cell surfaces; human CD3+ T cells
T3 sequence (P07766 23-207, one chain of several): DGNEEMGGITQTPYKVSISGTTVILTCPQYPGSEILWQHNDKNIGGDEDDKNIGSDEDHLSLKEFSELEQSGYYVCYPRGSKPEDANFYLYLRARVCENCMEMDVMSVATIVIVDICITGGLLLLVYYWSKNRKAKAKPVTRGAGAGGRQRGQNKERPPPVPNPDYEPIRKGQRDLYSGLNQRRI

T1 sequence (P07766 23-126 limits assumed): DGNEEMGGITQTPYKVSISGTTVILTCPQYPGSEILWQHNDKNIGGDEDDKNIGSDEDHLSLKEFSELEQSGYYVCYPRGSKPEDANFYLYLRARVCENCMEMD

- kon [1]: 119000 M⁻¹ s⁻¹
- EC50 (read off the curve) [2]: ~0.05 µg/mL
- EC50 (read off the curve) [3]: ~0.06 µg/mL
- EC50 (read off the curve) [4]: ~0.05 µg/mL
- EC50 (read off the curve) [5]: ~0.05 µg/mL
- EC50 (read off the curve) [6]: ~0.7 µg/mL
B1: chimeric anti-CD3 antibody CD3-19 (full length, human IgG1) (antibody, V domains shown)
VH: EVKLLESGGGLVQPKGSLKLSCAASGFTFNSYAMNWVRQAPGKGLEWVARIRSKYNNYATYYADSVKDRFTISRDDSQSILYLQMNNLKTEDTAMYYCVRHGNFGNSYLSYWAYWGQGTLVTVSA
VL: QAVVTQESALTTSPGETVTLTCDSSTGAVTTSNYANWVQEKPDHLFTGLIGGTQRSAPGVPARFSGSLIGDKAALTITGAQTEDEAIYFCVLWYSNLWVFGGGTKLTVLG
notes: also called chimeric CD3-19 antibody; parent antibody
